Reference: paper PMC5057311

Columns and labels:
[1] = molecular target: CD80 on cynomolgus monkey blood cells (cynomolgus monkey (endogenous in blood cells)); assay: flow cytometry on cells
[2] = molecular target: CD86 on cynomolgus monkey blood cells (cynomolgus monkey (endogenous in blood cells)); assay: flow cytometry on cells

Substance: CTLA4‐Ig recombinant fusion protein (from UniProt P16410 36-161) (Fc fusion)
- percent free CD80 of predose, Day 14, high dose (3 mg/kg) [1]: 3%
- percent free CD80 of predose, Day 14, middle dose (0.3 mg/kg) [1]: 42%
- percent suppression of free CD80 upon administration (all dose groups) [1]: > 90%
- serum CTLA4‐Ig concentration at ∼90% target suppression [1]: 0.18 µg/mL
- percent free CD86 of predose, 4 h after the low dose (0.03 mg/kg) [2]: 67%
- serum CTLA4‐Ig concentration at ∼90% target suppression [2]: 33 µg/mL
